The subject of one data set is B16-OVA melanoma. The data set can be described thus: B16-OVA tumor growth in wild-type mice. The conditions noted are these: 5×10^5 B16-OVA in C57BL/6 mice, 10 μM i.v. 9 days after implantation (FIG. 19). It is filed as in vivo, mouse.
The next data set addresses T1, His-YTHDF1 (361-559) (UniProt Q9BYJ9 SEQ:40-238).
T1 sequence: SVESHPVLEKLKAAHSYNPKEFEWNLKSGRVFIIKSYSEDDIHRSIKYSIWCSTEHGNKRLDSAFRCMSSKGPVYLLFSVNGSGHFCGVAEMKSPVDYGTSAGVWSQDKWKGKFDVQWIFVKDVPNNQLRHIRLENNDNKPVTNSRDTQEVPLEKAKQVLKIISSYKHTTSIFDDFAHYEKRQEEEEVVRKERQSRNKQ
The data set can be described thus: AlphaScreen; 20 mM Hepes pH 7.4, 150 mM NaCl, BSA, TritonX-100; binding inhibited by SAA. The conditions noted are these: tags: His; label: 5'-biotin. As for the experimental part: Then 10 nM biotinylated m⁶A-containing mRNA (5′-biotin-[…] (m⁶A) CUGUG-3′) (SEQ ID NO: 15) was added to bind with YTHDF1 (361-559), and unbiotinylated m⁶A-containing mRNA was used as the positive control. Before Alpha signal detection, streptavidin donor beads and anti-His acceptor beads were added into the white assay plate in subdued light (OptiPlate™-384, PerkinElmer) and incubated at 4° C. for 1 hour to ensure sufficient binding between biotin tag and streptavidin donor beads, as well as that between His tag and anti-His acceptor beads. Then the Alpha signal was detected on Envision Readers (PerkinElmer).
(In general: Alpha assays give light when donor and acceptor beads are brought close together.)

For another data set, the target named is T2, YTHDF1 (361-559) C412A (UniProt Q9BYJ9 SEQ:3-201).
T2 chain: T1 sequence with C52A
Put plainly: FP; binding seen through SAA inhibition assay; affinity not given. As to conditions: tags: GST tag removed; label: 5'-FAM.

A further data set deals with T3, YTHDF1 (361-559) R506A (UniProt Q9BYJ9 SEQ:3-201).
T3 chain: T1 sequence with R146A
Described as above. The conditions noted are these: tags: GST tag removed; label: 5'-FAM.

The next data set addresses T4, YTHDF1 (361-559) Y397A (UniProt Q9BYJ9 SEQ:3-201).
T4 chain: T1 sequence with Y37A
The description is as above. The conditions noted are these: tags: GST tag removed; label: 5'-FAM.

Another data set deals with T5, YTHDF1 (361-559) K395A (UniProt Q9BYJ9 SEQ:3-201).
T5 chain: T1 sequence with K35A
Described as above. The conditions noted are these: tags: GST tag removed; label: 5'-FAM.

In a further data set the target is T6, YTHDF1 (361-559) H528A (UniProt Q9BYJ9 SEQ:3-201, H528A).
T6 sequence: T1 sequence with H168A
The data set can be described thus: FP; value only in figure; affinity not influenced vs wild type. As to conditions: tags: GST tag removed; label: 5'-FAM.

The target in a further data set is T7, YTHDF1 (361-559) F382A (UniProt Q9BYJ9 SEQ:3-201, F382A).
T7 sequence: T1 sequence with F22A
Described as above. As to conditions: tags: GST tag removed; label: 5'-FAM.

Another data set concerns the target T8, YTHDF1 (361-559) N378A (UniProt Q9BYJ9 SEQ:3-201, N378A).
T8 sequence: T1 sequence with N18A
The description is as above. The conditions noted are these: tags: GST tag removed; label: 5'-FAM.

A further data set concerns the target T9, YTHDF1 (361-559) W384A (UniProt Q9BYJ9 SEQ:3-201, W384A).
T9 sequence: T1 sequence with W24A
Described as above. As to conditions: tags: GST tag removed; label: 5'-FAM.

For the next data set, the target named is T10, YTHDF1 (361-559) F480A (UniProt Q9BYJ9 SEQ:3-201, F480A).
T10 sequence: T1 sequence with F120A
The description is as above. As to conditions: tags: GST tag removed; label: 5'-FAM.

The target in data set [1] is T11, YTHDF1 C-terminal truncation (UniProt Q9BYJ9 SEQ:3-174).
T11 chain: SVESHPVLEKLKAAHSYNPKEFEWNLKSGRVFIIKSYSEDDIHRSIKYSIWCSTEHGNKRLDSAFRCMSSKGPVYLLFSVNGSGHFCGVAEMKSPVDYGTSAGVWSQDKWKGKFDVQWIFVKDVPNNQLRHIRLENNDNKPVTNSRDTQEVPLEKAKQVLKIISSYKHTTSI
The data set is described as above. The conditions noted are these: tags: GST tag removed; label: 5'-FAM.

For data set [2], the target named is T12, YTHDF1 (361-559), YTH domain (UniProt Q9BYJ9 SEQ:3-201).
T12 sequence: T1 sequence
The data set can be described thus: FP; value only in figure; 20 mM Hepes pH 7.4, 50 mM NaCl, 0.01% tween 20, 5% glycerol, 4 C. The conditions noted are these: tags: GST tag removed; E. coli BL21(DE3); label: 5'-FAM.

Residue numbers refer to the chain shown, from its start.

Consider `O=C(/C=C/c1ccc(O)c2oc(-c3ccc(O)c(O)c3)cc12)O[C@H](Cc1ccc(O)c(O)c1)C(=O)O` [SAC, Salvianolic Acid C], for which, in the data set with B16-OVA melanoma, the “tumor growth versus DMSO” value is on record as “tumor growth was much slower”.
As for UUCUUCUGUGGACUGUG (ssRNA, m6A at position 12 (UUCUUCUGUGG(m6A)CUGUG)) [5'-biotin m6A-containing mRNA], in the data set with His-YTHDF1 (361-559), the binding result is given as “binds”.
In the case of UUCUUCUGUGGACUGUG (ssRNA, m6A at position 12 (UUCUUCUGUGG(m6A)CUGUG)) [5'-FAM m6A-containing mRNA], the binding result in the data set with YTHDF1 (361-559) C412A, with YTHDF1 (361-559) R506A, in the data set with YTHDF1 (361-559) Y397A, with YTHDF1 (361-559) K395A, with YTHDF1 (361-559) H528A and with YTHDF1 (361-559) F382A was “binds” in each case. For the same molecule, the binding result (with YTHDF1 (361-559) N378A; with YTHDF1 (361-559) W384A; in the data set with YTHDF1 (361-559) F480A; in data set [1]; in [2]) was “binds” each time.

These data come from patent publication US20240033244A1, “COMPOSITIONS AND METHODS FOR INHIBITING YTHDF1” (SHANGHAI INSTITUTE OF MATERIA MEDICA, CHINESE ACADEMY OF …, priority 2020, published 2024).
